Target: T1, Toscana virus nucleoprotein (Toscana virus, UniProt P21701)
T1 construct: Nucleoprotein (N) of Toscana virus, coded by the S segment; Monomeric fractions of N were pooled for complex formation; also called TOSV N; N protein; source: E. coli, purified under non-denaturing conditions (1 M NaCl and 3 M urea in the lysis buffer to remove nucleic acids)
Assay: crystal structure; N–VHH complex at 13 mg/ml, hanging drop, 293 K, 0.5 M MES pH 6.5, 25% PEG 2000; space group P4(1)2(1)2, 3.8 Å
Settings: both partners purified

T1 sequence (P21701 2-253): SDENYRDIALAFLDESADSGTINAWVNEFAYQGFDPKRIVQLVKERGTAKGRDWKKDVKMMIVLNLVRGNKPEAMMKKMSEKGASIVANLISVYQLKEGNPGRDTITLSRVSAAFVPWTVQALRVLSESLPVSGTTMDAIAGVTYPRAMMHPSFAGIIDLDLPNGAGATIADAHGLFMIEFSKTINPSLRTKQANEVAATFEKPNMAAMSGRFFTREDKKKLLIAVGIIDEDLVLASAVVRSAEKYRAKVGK

B1: single-chain camelid antibody (VHH) targeting the TOSV N protein (VHH)
VHH: QVQLVESGGGSVQAGGSLRLSCAASGDAGRRYCMAWFRQAPGKEREGVAFISTANGRTDYVDSVKGRFTISQNSAKNTVYLQMNSLKPEDTAMYYCASRGYGYLSCSSYSLAAYNYWGQGTQVTVSS
notes: Selected by phage display from a llama immunised with TOSV N; The clone has no printed name; also called nanobody; source: E. coli WK6, periplasmic extract, purified (IMAC)
  binding result: binds

Source: paper PMC10836398, “Structural flexibility of Toscana virus nucleoprotein in the presence of a single-chain camelid antibody” (Acta Crystallographica. Section D, Structural Biology, 2024)
